Our source for the percent still bound values is patent US20040167319A1 (Genmab, published 2004).

This assay has as its target human CD20 (human) (UniProt P11836). Put plainly: dissociation of 125I-labelled F(ab)2 fragments from Ramos-EHRB cells, initial binding set at 100%.

Sequence of human CD20 (human) (P11836 whole entry, the tested form may be a part): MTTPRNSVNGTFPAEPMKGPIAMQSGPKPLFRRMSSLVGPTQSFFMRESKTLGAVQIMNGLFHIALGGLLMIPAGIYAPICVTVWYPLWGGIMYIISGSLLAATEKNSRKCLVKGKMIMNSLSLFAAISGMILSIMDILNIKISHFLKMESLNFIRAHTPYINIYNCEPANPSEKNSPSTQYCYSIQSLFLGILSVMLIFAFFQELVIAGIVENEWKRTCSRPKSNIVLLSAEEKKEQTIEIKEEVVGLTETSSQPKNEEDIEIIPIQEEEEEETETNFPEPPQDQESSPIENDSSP

Substance F(ab′)2 fragment of rituximab gave a percent still bound at 90 min of 50%.
